Assay results as given in patent US20100172896A1, “HMGB1 PROTEIN INHIBITORS AND/OR ANTAGONISTS FOR THE TREATMENT OF VASCULAR DISEASES” (BIO3 RESEARCH SRL, priority 2001, published 2010).

What was measured:
Type in all cases: cell-based
RSMC [1] = test: Chemotaxis assay, modified Boyden chambers, RSMC
Method: Chemotaxis assays were performed using well-known protocols (Degryse et al., 1999, Blood, 94: 649-662).
Modified Boyden chambers were used with filters having 0.5 Am pore size (Corning, Acton, Mass.) and. treated with collagen I (100 Ug/ml in 0.5 M acetic acid) e fibronectin (10 IIg/ml) (Roche). RSMC cells (kind gift of Dr. Marco Bertulli, Bayer Research Laboratories, Milan) were cultured in DMEM serum-free and a sample of 20.000-40.000 cells was added to the upper well of Boyden. chamber. The molecules to be tested were diluted in the same serum-free medium and added to the lower well.
Different HMGB1 preparations were used: HMGB1 purified from calf thymus (kind gift of J. Bernues, C.S.I.C., Barcelona, Spain), E. coli expressed […], and a lightly modified HMGB1 form (containing EAEAYVEF aminoacids bound to the Nterminus) produced in yeast Pichia pastoris (Mistry et al., 1997, Biotechniques, 22: 718-729).
If necessary, the polyclonal rabbit anti-HMGB1 (Pharmingen B D, Torrey Pines, Calif.), the pertussis toxin (PT) from Bordetella pertussis (kind gift of Dr. M. G. Pizza, I.R.I.S., Siena) or the inhibitors were added in both wells.
Overnight cell migration was allowed at 37 C, then cells remaining on the upper surface of filters were scraped off and filters were fixed in methanol and stained in a solution of 10% crystal violet in 20% methanol. All experiments were performed at least twice in triplicate.
Results, as shown in FIGS. 1-A, 1-B, 1-C, 1-D, are the mean±SD of the number of cells counted in 10 high power fields per filter and expressed as fold over control. To random cell migration (i.e., migration in the absence of chemoattractant) was given the arbitrary value of 100%.
Statistical analysis was performed using Student's t test for pairwise comparisons of treatments, or an ANOVA model for the evaluation of treatments with increasing doses of a reagent.
Knowing that many chemoattractants act via membrane receptors associated to heterotrimeric GTP binding proteins (G proteins), whether G proteins could be implicated in HMGB1 signaling was tested. […] RSMC were pre-treated with PT or with mPT (50 ng/ml) for 6 hours, thus stimulated with HMGB1 (100 ng/ml), Box A or Box B (10 ng/ml) for 30 minutes.
Chemotaxis assays were performed as previously described. The data represent the mean±SD and the value of 100% corresponds to basal migration in the absence of any stimulator.

RSMC [2] = test: Immunofluorescence assay of RSMC morphology and actin cytoskeleton organization
Method: Samples of 15.000-20.000 RSMC, 20-40% confluence, 2 were seeded on glass coverslips in 2 cm wells and cultured for 24 hours in DMEM plus 10% FCS, washed with PBS, and cultured for another 24 hours in DMEM without FCS. RSMC were stimulated with HMGB1 100 ng/ml for increasing time intervals, from 5 to 120 minutes at 37 C. After stimulation, RSMC were fixed for 20 minutes at room temperature with a solution of 3% paraformaldehyde, 2% sucrose in PBS, pH 7.5, followed by three washes with PBS-BSA 0.2%. Cells were permeabilized with 20 mM Hepes pH 7.4, 300 mM saccharose, 50 mM NaCl, 3 mM MgCl2, 0.5% (v/v) Triton X-100 for 3 minutes at 4 C, and washed again three times with PBS-BSA 0.2%. Then, RSMC were incubated with PBS-BSA 2% for. 15 minutes at 37 C, with primary antibodies for 30 minutes at 37 C, washed three times with PBS-BSA 0.2%, and further incubated with PBS-BSA 2% for 15 minutes. At the end, cells were stained with secondary antibodies and/or phalloidin conjugated with rodamin for visualization of filamentous actin; in some cases, DAPI (4′,6-diamidino-2-phenilindolo, Roche) was used to label the nucleus.
After all the subsequent incubation, coverslips were washed three times with PBS-BSA 0.2%, twice with distilled water, mounted with 20% Mowiol in PBS and analysed on a Axiophot microscope (Carl Zeiss).
Fluorescence photographs were taken either on T-Max 400 or EPH P1600X film (Eastman Kodak) using Zeiss 40 and 100 neofluar lenses.
In certain experiments cells were overnight pretreated with antibodies or PT or inhibitors.
Finally, to determine whether the observed effects of HMGB1 on RSMC actually reflect a dynamic transition from resting to motile states, the proportion of cells in each different state was quantified.

phosphorylated ERK1/2 = test: ERK1/2 phosphorylation and nuclear translocation in RSMC (immunostaining); set-up: inhibition of HMGB1-induced ERK phosphorylation and nuclear translocation: dose or concentration left out as unconfirmed
Method: Afterwards, whether the HMGB1-induced signaling involves the MAP kinase pathway, was investigated; in fact, it is known that these proteins are activated by RAGE, and they have a direct role in the regulation of the intracellular motility machinery. RSMC were pretreated with PD98059 ([…]) for one hour or were not pre-treated, stimulated for 30 minutes with HMGB1 from calf thymus (100 ng/ml) and stained with specific antibodies against phosphorylated ERK1/2 (New England Biolabs, Beverly, Mass.) and DAPI. A separate sample of cells was stained with TRITC-phalloidin to visualize the reorganization of cytoskeleton. […] Moreover, PD98059, the selective inhibitor of MEK, the upstream regulator of ERK, inhibits HMGB1-induced ERK phosphorylation and. nuclear translocation, as well as RSMC migration and cytoskeleton reorganization.

[3] = system: Mouse embryonic fibroblasts; test: Chemotaxis assay on fibroblasts, modified Boyden chambers
Method: Chemotaxis assays were performed using well-know protocols (Degryse et al., 1999, Blood, 94:64. 9-662). Modified Boyden chambers were used with filters having 0.5 ym pore size (Corning, Acton, Mass.) and treated with collagen I (100 pg/ml in 0.5 M acetic acid) and fibronectin (10 IIg/ml) (Roche). Mouse embryonic fibroblasts were cultured following well-known protocols (Calogero et al., 1999, Nat. Genet., 22: 276280) and after 24 hours of serum starvation, a sample of 20.000-40.000 cells was added to the upper well of Boyden. chamber. E. Coli expressed recombinant-HMGB1 was diluted in the same serum-free medium and added to the lower well. Anti-RAGE antibodies (1000 ng/ml) (kind gift of Dr. A. M. Schimdt, Columbia University, NY) were added in both wells.
Overnight cell migration. was allowed at 37 C, then cells remaining on the upper surface of filters were scraped off and filters were fixed in methanol and stained in a solution of 10% crystal violet in 20% methanol. All experiments were performed at least twice in triplicate.
Results, as shown in FIG. 10 are the mean W SD of the number of cells counted in 10 high power fields per filter and expressed as fold over untreated control. To random cell migration (i.e. migration in absence of chemoattractant) was given the arbitrary value of 100%.
Statistical analysis was performed using an ANOVA model for the evaluation of treatments with increasing doses of a reagent. […] Anti RAGE antibodies (1000 ng/ml) totally block the migratory response (right side of the graphic of FIG. 10) showing that this is specifically due to HMGB1.

[4] = HMGB1 100 ng/ml, one hour after stimulation

Molecule: COc1cccc(-c2cc(=O)c3ccccc3o2)c1N [PD98059, reference compound]
- inhibition of HMGB1-induced RSMC migration (RSMC [1]; inhibitor in both wells or pre-treatment, HMGB1 as chemoattractant): inhibits
- inhibition of HMGB1-induced cytoskeletal reorganization and morphological change of RSMC (RSMC [2]; cells pretreated with antibodies, PT or inhibitors): inhibits
- inhibition of HMGB1-induced ERK phosphorylation and nuclear translocation (phosphorylated ERK1/2; pretreated with PD98059 for one hour): inhibits

B1: E. Coli expressed recombinant-HMGB1: full-length HMGB1 expressed in E. Coli transformed with pT7-7-rHMGlcm plasmid (protein, UniProt P09429 1-215, looked up)
chain: MGKGDPKKPRGKMSSYAFFVQTCREEHKKKHPDASVNFSEFSKKCSERWKTMSAKEKGKFEDMAKADKARYEREMKTYIPPKGETKKKFKDPNAPKRPPSAFFLFCSEYRPKIKGEHPGLSIGDVAKKLGEMWNNTAADDKQPYEKKAAKLKEKYEKDIAAYRAKGKPDAAKKGVVKAEKSKKKKEEEEDEEDEEDEEEEEDEEDEDEEEDDDDE
modifications: full-length expressed in E. coli
notes: full-length HMGB1 expressed in E. Coli transformed with pT7-7-rHMGlcm plasmid
- dose giving maximal migratory response of fibroblasts [3]: 100 ng/mL
- migratory response of fibroblasts at higher doses ([3]; 1000 ng/ml): lower than the control
- lowest dose stimulating fibroblasts migration ([3]; concentration-dependent): 0.1 ng/mL

B2: HMGB1: HMGB1 protein, 25-kD, 215 amino acids, two HMG boxes and acidic COOH terminus; preparation not specified at the place (protein, UniProt P09429 1-215, looked up)
High mobility group protein B1: MGKGDPKKPRGKMSSYAFFVQTCREEHKKKHPDASVNFSEFSKKCSERWKTMSAKEKGKFEDMAKADKARYEREMKTYIPPKGETKKKFKDPNAPKRPPSAFFLFCSEYRPKIKGEHPGLSIGDVAKKLGEMWNNTAADDKQPYEKKAAKLKEKYEKDIAAYRAKGKPDAAKKGVVKAEKSKKKKEEEEDEEDEEDEEEEEDEEDEDEEEDDDDE
- chemotactic effect on RSMC (in words) (RSMC [1]; overnight migration, serum-free medium): comparable in amplitude to the effects of the well characterised attractants fMLP and bFGF
- proportion of cells in state 2 (RSMC [2]; HMGB1 100 ng/ml, after 15-30 minutes): 80%
- proportion of cells in state 1 (RSMC [2]; [4]): 60%
- proportion of cells in state 2 (RSMC [2]; [4]): 40%
- change of RSMC morphology and cytoskeleton organization (RSMC [2]; HMGB1 100 ng/ml, within 15-30 minutes): complete change of morphology and cytoskeleton organization
- proportion of cells in state 2 (RSMC [2]; HMGB1 100 ng/ml, within 5 minutes after stimulation): 60%
- activation and nuclear translocation of ERK1/2 in RSMC (phosphorylated ERK1/2; HMGB1 from calf thymus 100 ng/ml, within 30 minutes): induces the activation of ERK1/2 proteins

B3: HMGB1 from calf thymus: HMGB1 purified from calf thymus (protein, UniProt P10103 2-215, looked up)
High mobility group protein B1: GKGDPKKPRGKMSSYAFFVQTCREEHKKKHPDASVNFSEFSKKCSERWKTMSAKEKGKFEDMAKADKARYEREMKTYIPPKGETKKKFKDPNAPKRPPSAFFLFCSEYRPKIKGEHPGLSIGDVAKKLGEMWNNTAADDKQPYEKKAAKLKEKYEKDIAAYRAKGKPDAAKKGVVKAEKSKKKKEEEEDEEDEEDEEEEEDEEDEEEEEDDDDE
- maximal migratory response of RSMC (RSMC [1]; at 100 ng/ml, random cell migration = 100%): 2.5 fold
- lowest dose stimulating migration of RSMC (RSMC [1]; concentration-dependent, overnight migration): 0.1 ng/mL
